Data as given in patent US20230203182A1 (NAVROGEN, published 2023).

B1: rituximab (parental antibody) (antibody, human IgG1, kappa)
heavy: not shown
light: QIVLSQSPAILSASPGEKVTMTCRASSSVSYIHWFQQKPGSSPKPWIYATSNLASGVPVRFSGSGSGTSYSLTISRVEAEDAATYYCQQWTSNPPTFGGGTKLEIKRTVAAPSVFIFPPSDEQLKSGTASVVCLLNNFYPREAKVQWKVDNALQSGNSQESVTEQDSKDSTYSLSSTLTLSKADYEKHKVYACEVTHQGLSSPVTKSFNRGEC
notes: IgG1-type anti-CD20 antibody; Biotinylated when used as probe in the CA125 and CD20-peptide ELISAs; also called RTX; RTX-WT
B2: RTX-MT clone 166 (antibody, human IgG1, kappa)
heavy: not shown
light: QIVLSQSPAILSASPGEKVTMTCRASSSVSYIHWFQQKPGSSPKPWIYATSNLASGVPVRFSGSGSGTSYSLTISRVEAEDAATYYCQQWTSNPPTFGGGTKLEIKRTVAAPSVFIFPPSDEQLKSGTASVVCLLNNFYPREAKVQWKVDNALQSGNSQESVTEQDSKDSTYSLSSTLTLSKADYEKHKVYACEVTHQGLSSPVTKSFNRGEC
notes: Biotinylated in the ELISAs; also called N109D+P131S+S136Y; triple mutant RTX-MT clone 166
B3: RTX N109D (antibody, human IgG1, kappa)
heavy: not shown
light: QIVLSQSPAILSASPGEKVTMTCRASSSVSYIHWFQQKPGSSPKPWIYATSNLASGVPVRFSGSGSGTSYSLTISRVEAEDAATYYCQQWTSNPPTFGGGTKLEIKRTVAAPSVFIFPPSDEQLKSGTASVVCLLNNFYPREAKVQWKVDNALQSGNSQESVTEQDSKDSTYSLSSTLTLSKADYEKHKVYACEVTHQGLSSPVTKSFNRGEC
notes: also called RTX-MT N109D; RTX MT N109D
B4: RTX-MT clone 164 (antibody, human IgG1, kappa, V domains shown)
VH: QVQLQQPGAELVKPGASVKMSCKASGYTFTSYNMHWVKQTPGRGLEWIGAIYPGNGDTSYNQKFKGKATLTADKSSSTAYMQLSSLTSEDSAVYYCARSTYYCGDWYFNVWGAGTTVTVSA
VL: QIVLSQSPAILSASPGEKVTMTCRASSSVSYIHWFQQKPGSSPKPWIYATSNLASGVPVRFSGSGSGTSYSLTISRVEAEDAATYYCQQWTSNPPTFGGGTKLEIKR
notes: Biotinylated in the ELISAs
B5: RTX-MT clone 199 (antibody, human IgG1, kappa, V domains shown)
VH: QVQLQQPGAELVKPGASVKMSCKASGYTFTSYNMHWVKQTPGRGLEWIGAIYPGNGDTSYNQKFKGKATLTADKSSSTAYMQLSSLTSEDSAVYYCARSTYYGGDWYLNVWGAGTTVTVSA
VL: QIVLSQSPAILSASPGEKVTMTCRASSSVSYIHWFQQKPGSSPKPWIYATSNLASGVPVRFSGSGSGTSYSLTISRVEAEDAATYYCQQWTSNPPTFGGGTKLEIKR
notes: Biotinylated in the ELISAs
B6: RTX-MT clone 148 (antibody, human IgG1, kappa, V domains shown)
VH: QVQLQQPGAELVKPGASVKMSCKASGYTFTSYNMHWVKQTPGRGLEWIGAIYPGNGDTSYNQKFKGKATLTADKSSSTAYMQLSSLTSEDSAVYYCARSTYFGGDWYFNVWGAGTTVTVSA
VL: QIVLSQSPAILSASPGEKVTMTCRASSSVSYIHWFQQKPGSSPKPWIYATSNLASGVPVRFSGSGSGTSYSLTISRVEAEDAATYYCQQWTSNPPTFGGGTKLEIKR
notes: Biotinylated in the ELISAs
B7: RTX-MT clone 198 (antibody, human IgG1, kappa, V domains shown)
VH: QVQLQQPGAELVKPGASVKMSCKASGYTFTSYNMHWVKQTPGRGLEWIGAIYPGNGDTSYNQKFKGKATLTADKSSSTAYMQLSSLTSEDSAVYYCARSTYYGGDWCFNVWGAGTTVTVSA
VL: QIVLSQSPAILSASPGEKVTMTCRASSSVSYIHWFQQKPGSSPKPWIYATSNLASGVPVRFSGSGSGTSYSLTISRVEAEDAATYYCQQWTSNPPTFGGGTKLEIKR
notes: Biotinylated in the ELISAs
B8: RTX-MT N109D+S136Y (antibody, human IgG1, kappa)
heavy: not shown
light: QIVLSQSPAILSASPGEKVTMTCRASSSVSYIHWFQQKPGSSPKPWIYATSNLASGVPVRFSGSGSGTSYSLTISRVEAEDAATYYCQQWTSNPPTFGGGTKLEIKRTVAAPSVFIFPPSDEQLKSGTASVVCLLNNFYPREAKVQWKVDNALQSGNSQESVTEQDSKDSTYSLSSTLTLSKADYEKHKVYACEVTHQGLSSPVTKSFNRGEC
B9: human complement protein C4B (other)
chain: KPRLLLFSPSVVHLGVPLSVGVQLQDVPRGQVVKGSVFLRNPSRNNVPCSPKVDFTLSSERDFALLSLQVPLKDAKSCGLHQLLRGPEVQLVAHSPWLKDSLSRTTNIQGINLLFSSRRGHLFLQTDQPIYNPGQRVRYRVFALDQKMRPSTDTITVMVENSHGLRVRKKEVYMPSSIFQDDFVIPDISEPGTWKISARFSDGLESNSSTQFEVKKYVLPNFEVKITPGKPYILTVPGHLDEMQLDIQARYIYGKPVQGVAYVRFGLLDEDGKKTFFRGLESQTKLVNGQSHISLSKAEFQDALEKLNMGITDLQGLRLYVAAAIIESPGGEMEEAELTSWYFVSSPFSLDLSKTKRHLVPGAPFLLQALVREMSGSPASGIPVKVSATVSSPGSVPEVQDIQQNTDGSGQVSIPIIIPQTISELQLSVSAGSPHPAIARLTVAAPPSGGPGFLSIERPDSRPPRVGDTLNLNLRAVGSGATFSHYYYMILSRGQIVFMNREPKRTLTSVSVFVDHHLAPSFYFVAFYYHGDHPVANSLRVDVQAGACEGKLELSVDGAKQYRNGESVKLHLETDSLALVALGALDTALYAAGSKSHKPLNMGKVFEAMNSYDLGCGPGGGDSALQVFQAAGLAFSDGDQWTLSRKRLSCPKEKTTRKKRNVNFQKAINEKLGQYASPTAKRCCQDGVTRLPMMRSCEQRAARVQQPDCREPFLSCCQFAESLRKKSRDKGQAGLQRALEILQEEDLIDEDDIPVRSFFPENWLWRVETVDRFQILTLWLPDSLTTWEIHGLSLSKTKGLCVATPVQLRVFREFHLHLRLPMSVRRFEQLELRPVLYNYLDKNLTVSVHVSPVEGLCLAGGGGLAQQVLVPAGSARPVAFSVVPTAATAVSLKVVARGSFEFPVGDAVSKVLQIEKEGAIHREELVYELNPLDHRGRTLEIPGNSDPNMIPDGDFNSYVRVTASDPLDTLGSEGALSPGGVASLLRLPRGCGEQTMIYLAPTLAASRYLDKTEQWSTLPPETKDHAVDLIQKGYMRIQQFRKADGSYAAWLSRGSSTWLTAFVLKVLSLAQEQVGGSPEKLQETSNWLLSQQQADGSFQDLSPVIHRSMQGGLVGNDETVALTAFVTIALHHGLAVFQDEGAEPLKQRVEASISKASSFLGEKASAGLLGAHAAAITAYALTLTKAPADLRGVAHNNLMAMAQETGDNLYWGSVTGSQSNAVSPTPAPRNPSDPMPQAPALWIETTAYALLHLLLHEGKAEMADQAAAWLTRQGSFQGGFRSTQDTVIALDALSAYWIASHTTEERGLNVTLSSTGRNGFKSHALQLNNRQIRGLEEELQFSLGSKINVKVGGNSKGTLKVLRTYNVLDMKNTTCQDLQIEVTVKGHVEYTMEANEDYEDYEYDELPAKDDPDAPLQPVTPLQLFEGRRNRRRREAPKVVEEQESRVHYTVCIWRNGKVGLSGMAIADVTLLSGFHALRADLEKLTSLSDRYVSHFETEGPHVLLYFDSVPTSRECVGFEAVQEVPVGLVQPASATLYDYYNPERRCSVFYGAPSKSRLLATLCSAEVCQCAEGKCPRQRRALERGLQDEDGYRMKFACYYPRVEYGFQVKVLREDSRAAFRLFETKITQVLHFTKDVKAAANQMRNFLVRASCRLRLEPGKEYLIMGLDGATYDLEGHPQYLLDSNSWIEEMPSERLCRSTRQRAACAQLNDFLQEYGTQGCQV
notes: also called enhancer protein

Tests used:
[1] = biological target: T1, human CD20 on Ramos cells (human, UniProt P11836 1-297); assay: cell-based fluorescent saturation binding on Ramos cells, Jurkat background subtracted, one-site nonlinear regression
T1 construct: whole, on cells; also called MS4A1
T1 sequence (looked up): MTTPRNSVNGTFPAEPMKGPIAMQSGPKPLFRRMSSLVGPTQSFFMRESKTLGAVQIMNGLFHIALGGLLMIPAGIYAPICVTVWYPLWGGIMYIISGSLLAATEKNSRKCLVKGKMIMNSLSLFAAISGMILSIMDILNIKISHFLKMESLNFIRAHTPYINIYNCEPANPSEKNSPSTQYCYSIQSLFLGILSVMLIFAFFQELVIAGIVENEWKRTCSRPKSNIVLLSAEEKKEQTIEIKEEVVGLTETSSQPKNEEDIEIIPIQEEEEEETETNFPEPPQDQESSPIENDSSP

[2] = biological target: T2, human CA125/MUC16 protein (human, UniProt Q8WXI7 1-14451, limits assumed); assay: cell-based or functional assay
[3] = biological target: T3, human CD16a (Fc-gamma activating receptor FCGR3A), biotinylated (human, UniProt P08637 17-208, limits assumed, biotinylated); assay: CD16a ELISA, percentage of binding with CA125 versus no CA125 (FIG. 7A)
T3 construct: Soluble biotinylated probe in ELISA; construct not described; also called CD16a-biotin; Fc receptor
T3 sequence (P08637 17-208 limits assumed): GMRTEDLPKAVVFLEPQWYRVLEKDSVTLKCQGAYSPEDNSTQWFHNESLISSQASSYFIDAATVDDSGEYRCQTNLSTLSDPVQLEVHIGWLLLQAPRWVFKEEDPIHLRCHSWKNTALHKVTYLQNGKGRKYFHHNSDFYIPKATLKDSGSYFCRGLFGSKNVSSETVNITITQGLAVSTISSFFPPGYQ

[4] = biological target: T2, human CA125/MUC16 protein; assay: ELISA, CA125-coated (15 KU/mL) and CD20 peptide-coated wells, biotinylated antibody
Source text: FIG. 4. […] Each of these antibodies were biotinylated and retested for CD20 and CA125 binding via ELISA. Briefly, antibodies were biotinylated using the EZ-Link™ Sulfo-NHS-Biotin (ThermoScientific) following the manufacturer’s instructions. Biotinylated antibodies where quantified by Nanodrop and validated for signal intensity using an anti-IgG ELISA capture assay to measure the signal intensity for each antibody. […] Wells were washed and then secondarily probed with streptavidin-HRP and quantified using TMB substrate as described above on a Varioskan plate reader at 450 nm. […] Any signal greater than a 20% decrease in CA125 was considered positive.

[5] = biological target: T2, human CA125/MUC16 protein; assay: direct binding ELISA, CA125-coated wells, biotinylated C4B

suppression of CDC activity by CA125 (Daudi cells) [2] | percent decrease in CA125 binding vs parental (ratio of CD20 to CA125 binding), selection criterion [4] | other results | Binder
32% |  | Kd [1]: 20.6 nM | B1
≤ 15% |  | binding result [3]: binds | B2
 |  | Kd [1]: 30.5 nM | B3
≤ 15% | > 20% |  | B4
≤ 15% | > 20% |  | B5
≤ 15% | > 20% |  | B6
≤ 15% | > 20% |  | B7
 |  | binding result [3]: binds | B8
 |  | binding result [5]: no binding | B9
